The record followed here is article PMC3873459.

Assay [1] concerns the target recombinant HLA-DR1 protein bound to a hemagglutinin (HA) peptide. The assay can be described thus: pull-down.
Assay [2] deals with pfiT, tag-less (GST removed with PreScission protease) (Pseudomonas fluorescens). Put plainly: AUC; sedimentation velocity, pfiT alone at 3.6 µM, 20°C, 50,000 rpm, 10 mM Hepes pH 7.4, 150 mM NaCl, 2 mM DTT; c(s) and c(M) distributions (SEDFIT).
For assay [3] the target is unchanged. The assay can be described thus: AUC; sedimentation equilibrium, pfiT alone at 9 µM and 18 µM, 20°C, 20,000/25,000/30,000 rpm, HBS; global fit with monomer-dimer model (SEDPHAT); dimer to monomers.

pIC50, pKd: −log10 of the molar value.

As to “pfiT, tag-less (GST removed with PreScission protease) (natural protein)”, the pIC50 in assay [1] was 4.33. Further, the stoichiometry N in assay [2] stood at 2. The substance further showed a pKd in assay [3] of 6.82.

As a reminder, the pIC50 is the negative decadic logarithm of the IC50, by convention in mol/L. Broadly, the stoichiometry N is a count of units in the complex or per binding partner. As usually defined, the pKd is −log10 of the Kd, conventionally taken in molar units. A high value points to a low Kd.
